Laboratory results: patent publication US7399847 (GENERAL HOSPITAL, dated 2008)

Target: T1, PSGL-1-NH2/CD34-COOH (UniProt Q14242 18-117; P28906 30-385)
T1 construct: range mature amino terminus-117;range 30-end (end not numbered), on cells; Cotransfected with FTVIIh; also called PSGL-1 apical domain on CD34
T1 sequence: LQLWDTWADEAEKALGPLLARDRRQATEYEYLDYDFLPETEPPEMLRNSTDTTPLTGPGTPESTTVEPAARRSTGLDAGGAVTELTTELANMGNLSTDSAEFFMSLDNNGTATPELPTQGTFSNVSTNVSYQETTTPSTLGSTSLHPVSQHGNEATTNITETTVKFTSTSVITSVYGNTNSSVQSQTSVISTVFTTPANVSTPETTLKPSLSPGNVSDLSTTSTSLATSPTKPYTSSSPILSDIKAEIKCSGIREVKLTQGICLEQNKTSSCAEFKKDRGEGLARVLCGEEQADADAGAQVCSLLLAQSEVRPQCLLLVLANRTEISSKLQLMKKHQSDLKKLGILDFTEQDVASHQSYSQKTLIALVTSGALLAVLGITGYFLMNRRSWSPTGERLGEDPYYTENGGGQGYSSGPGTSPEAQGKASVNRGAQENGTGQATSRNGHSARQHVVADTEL
Test: adhesion of 51Cr-labelled transfected COS cells to immobilized P-selectin:Ig
Protocol: To assess the importance of these residues, the tyrosines were converted to phenylalanine (FIG. 9A). In a second peptide, the threonines were converted to alanines. In addition, a third peptide, containing a quintuple mutation, was prepared such that both conversions were made in a single peptide. […] Cells expressing the resulting chimeras were tested for their ability to bind to immobilized P-selectin (FIG. 9A). […] Expression of the flu tag or sLe^x epitope was not affected in these cells.

B1: P-selectin:immunoglobulin fusion protein (Fc fusion, UniProt P16109 42-321, looked up)
chain: WTYHYSTKAYSWNISRKYCQNRYTDLVAIQNKNEIDYLNKVLPYYSSYYWIGIRKNNKTWTWVGTKKALTNEAENWADNEPNNKRNNEDCVEIYIKSPSAPGKWNDEHCLKKKHALCYTASCQDMSCSKQGECLETIGNYTCSCYPGFYGPECEYVRECGELELPQHVLMNCSHPLGNFSFNSQCSFHCTDGYQVNGPSKLECLASGIWTNKPPQCLAAQCPPLKIPERGNMTCLHSAKAFQHQSSCSFSCEEGFALVGPEVVQCTASGVWTAPAPVCKA
notes: domain: lectin, EGF-related, and first two short consensus repeat related domains; Made in COS cells; captured from supernatant on wells coated with goat anti-human IgG Fc; also called soluble P-selectin; P-selectin Ig chimera; not shown: hinge, CH2, and CH3 domains of human IgG1
B1: binds.
